From patent US20210388087A1 (Chugai, published 2021)
Residue numbers refer to the chain shown, from its start. In names and notes the source's numbering stands.

B1: dBBDu183H S99G / dBBDu072L (antibody, name in Kabat numbering, V domains shown)
VH: QVQLVESGGGLVQPGRSLRLSCAASGFTFSNAWMHWVRQAPGKGLEWVAQIKDKGNAYAAYYAPSVKGRFTISRDDSKNSIYLQMNSLKTEDTAVYYCHYVHYAGASTVLPAFGVDAWGQGTTVTVSS
VL: DIVMTQSPLSLPVTPGEPASISCQASQELVHMNRNTYLHWYQQKPGQAPRLLIYKVSNRFPGVPDRFSGSGSGTDFTLKISRVEAEDVGVYYCAQGTSVPFTFGQGTKLEIK
notes: as m1, one VH change
B2: dBBDu183H S99H / dBBDu072L (antibody, name in Kabat numbering, V domains shown)
VH: B1 VH with G105H
VL: B1 VL
notes: as m1, one VH change
B3: dBBDu183H S99K / dBBDu072L (antibody, name in Kabat numbering, V domains shown)
VH: B1 VH with G105K
VL: B1 VL
notes: as m1, one VH change
B4: dBBDu183H S99Q / dBBDu072L (antibody, name in Kabat numbering, V domains shown)
VH: B1 VH with G105Q
VL: B1 VL
notes: as m1, one VH change
B5: dBBDu183H S99R / dBBDu072L (antibody, name in Kabat numbering, V domains shown)
VH: B1 VH with G105R
VL: B1 VL
notes: as m1, one VH change
B6: dBBDu183H S99T / dBBDu072L (antibody, name in Kabat numbering, V domains shown)
VH: B1 VH with G105T
VL: B1 VL
notes: as m1, one VH change
B7: dBBDu183H S99Y / dBBDu072L (antibody, name in Kabat numbering, V domains shown)
VH: B1 VH with G105Y
VL: B1 VL
notes: as m1, one VH change
B8: dBBDu183H T100bN / dBBDu072L (antibody, name in Kabat numbering, V domains shown)
VH: B1 VH with G105S, T108N
VL: B1 VL
notes: as m1, one VH change
B9: dBBDu183H T100bQ / dBBDu072L (antibody, name in Kabat numbering, V domains shown)
VH: B1 VH with G105S, T108Q
VL: B1 VL
notes: as m1, one VH change
B10: dBBDu183H T100bS / dBBDu072L (antibody, name in Kabat numbering, V domains shown)
VH: B1 VH with G105S, T108S
VL: B1 VL
notes: as m1, one VH change
B11: dBBDu183H V63D / dBBDu072L (antibody, name in Kabat numbering, V domains shown)
VH: B1 VH with V66D, G105S
VL: B1 VL
notes: as m1, one VH change
B12: dBBDu183H V63E / dBBDu072L (antibody, name in Kabat numbering, V domains shown)
VH: B1 VH with V66E, G105S
VL: B1 VL
notes: as m1, one VH change
B13: dBBDu183H V63F / dBBDu072L (antibody, name in Kabat numbering, V domains shown)
VH: B1 VH with V66F, G105S
VL: B1 VL
notes: as m1, one VH change
B14: dBBDu183H V63G / dBBDu072L (antibody, name in Kabat numbering, V domains shown)
VH: B1 VH with V66G, G105S
VL: B1 VL
notes: as m1, one VH change
B15: dBBDu183H V63H / dBBDu072L (antibody, name in Kabat numbering, V domains shown)
VH: B1 VH with V66H, G105S
VL: B1 VL
notes: as m1, one VH change
B16: dBBDu183H V63K / dBBDu072L (antibody, name in Kabat numbering, V domains shown)
VH: B1 VH with V66K, G105S
VL: B1 VL
notes: as m1, one VH change
B17: dBBDu183H V63N / dBBDu072L (antibody, name in Kabat numbering, V domains shown)
VH: B1 VH with V66N, G105S
VL: B1 VL
notes: as m1, one VH change
B18: dBBDu183H V63Q / dBBDu072L (antibody, name in Kabat numbering, V domains shown)
VH: B1 VH with V66Q, G105S
VL: B1 VL
notes: as m1, one VH change
B19: dBBDu183H V63R / dBBDu072L (antibody, name in Kabat numbering, V domains shown)
VH: B1 VH with V66R, G105S
VL: B1 VL
notes: as m1, one VH change
B20: dBBDu183H V63S / dBBDu072L (antibody, name in Kabat numbering, V domains shown)
VH: B1 VH with V66S, G105S
VL: B1 VL
notes: as m1, one VH change
B21: dBBDu183H V63T / dBBDu072L (antibody, name in Kabat numbering, V domains shown)
VH: B1 VH with V66T, G105S
VL: B1 VL
notes: as m1, one VH change
B22: dBBDu183H V63W / dBBDu072L (antibody, name in Kabat numbering, V domains shown)
VH: B1 VH with V66W, G105S
VL: B1 VL
notes: as m1, one VH change
B23: dBBDu183H V100cE / dBBDu072L (antibody, name in Kabat numbering, V domains shown)
VH: B1 VH with G105S, V109E
VL: B1 VL
notes: as m1, one VH change
B24: dBBDu183H V100cH / dBBDu072L (antibody, name in Kabat numbering, V domains shown)
VH: B1 VH with G105S, V109H
VL: B1 VL
notes: as m1, one VH change
B25: dBBDu183H V100cK / dBBDu072L (antibody, name in Kabat numbering, V domains shown)
VH: B1 VH with G105S, V109K
VL: B1 VL
notes: as m1, one VH change
B26: dBBDu183H V100cQ / dBBDu072L (antibody, name in Kabat numbering, V domains shown)
VH: B1 VH with G105S, V109Q
VL: B1 VL
notes: as m1, one VH change
B27: dBBDu183H V100cR / dBBDu072L (antibody, name in Kabat numbering, V domains shown)
VH: B1 VH with G105S, V109R
VL: B1 VL
notes: as m1, one VH change
B28: dBBDu183H V100cS / dBBDu072L (antibody, name in Kabat numbering, V domains shown)
VH: B1 VH with G105S, V109S
VL: B1 VL
notes: as m1, one VH change
B29: dBBDu183H V100cT / dBBDu072L (antibody, name in Kabat numbering, V domains shown)
VH: B1 VH with G105S, V109T
VL: B1 VL
notes: as m1, one VH change
B30: dBBDu183H V100cW / dBBDu072L (antibody, name in Kabat numbering, V domains shown)
VH: B1 VH with G105S, V109W
VL: B1 VL
notes: as m1, one VH change
B31: dBBDu183H V100cY / dBBDu072L (antibody, name in Kabat numbering, V domains shown)
VH: B1 VH with G105S, V109Y
VL: B1 VL
notes: as m1, one VH change
B32: dBBDu183H V100iT / dBBDu072L (antibody, name in Kabat numbering, V domains shown)
VH: B1 VH with G105S, V115T
VL: B1 VL
notes: as m1, one VH change
B33: dBBDu183H Y94D / dBBDu072L (antibody, name in Kabat numbering, V domains shown)
VH: B1 VH with Y100D, G105S
VL: B1 VL
notes: as m1, one VH change
B34: dBBDu183H Y94F / dBBDu072L (antibody, name in Kabat numbering, V domains shown)
VH: B1 VH with Y100F, G105S
VL: B1 VL
notes: as m1, one VH change
B35: dBBDu183H Y94N / dBBDu072L (antibody, name in Kabat numbering, V domains shown)
VH: B1 VH with Y100N, G105S
VL: B1 VL
notes: as m1, one VH change
B36: dBBDu183H Y94Q / dBBDu072L (antibody, name in Kabat numbering, V domains shown)
VH: B1 VH with Y100Q, G105S
VL: B1 VL
notes: as m1, one VH change
B37: dBBDu183H Y94S / dBBDu072L (antibody, name in Kabat numbering, V domains shown)
VH: B1 VH with Y100S, G105S
VL: B1 VL
notes: as m1, one VH change
B38: dBBDu183H Y94T / dBBDu072L (antibody, name in Kabat numbering, V domains shown)
VH: B1 VH with Y100T, G105S
VL: B1 VL
notes: as m1, one VH change
B39: dBBDu183H Y97F / dBBDu072L (antibody, name in Kabat numbering, V domains shown)
VH: B1 VH with Y103F, G105S
VL: B1 VL
notes: as m1, one VH change
B40: dBBDu183H Y97W / dBBDu072L (antibody, name in Kabat numbering, V domains shown)
VH: B1 VH with Y103W, G105S
VL: B1 VL
notes: as m1, one VH change

These binders were tested against T1, Human CD137 ECD (human) (assay: SPR, vs parent H183/L072).
T1 construct: also called 4-1BB
T1 sequence (chain, as listed by the source limits assumed): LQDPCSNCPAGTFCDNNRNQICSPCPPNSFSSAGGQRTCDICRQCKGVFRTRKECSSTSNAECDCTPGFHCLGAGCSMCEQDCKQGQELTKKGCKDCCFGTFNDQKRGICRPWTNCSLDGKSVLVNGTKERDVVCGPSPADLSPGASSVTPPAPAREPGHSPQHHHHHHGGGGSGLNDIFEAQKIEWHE

| Binder | fold change of affinity |
| --- | --- |
| B1 | 1 fold |
| B2 | 1.5 fold |
| B3 | 1.2 fold |
| B4 | 0.6 fold |
| B5 | 1.1 fold |
| B6 | 0.6 fold |
| B7 | 0.5 fold |
| B8 | 0.1 fold |
| B9 | 0.3 fold |
| B10 | 1 fold |
| B11 | 0.9 fold |
| B12 | 0.9 fold |
| B13 | 0.9 fold |
| B14 | 1.3 fold |
| B15 | 1 fold |
| B16 | 0.8 fold |
| B17 | 0.9 fold |
| B18 | 1.3 fold |
| B19 | 1 fold |
| B20 | 0.9 fold |

| Binder | fold change of affinity |
| --- | --- |
| B21 | 0.9 fold |
| B22 | 1 fold |
| B23 | 0.5 fold |
| B24 | 0.5 fold |
| B25 | 0.5 fold |
| B26 | 1.4 fold |
| B27 | 0.7 fold |
| B28 | 0.5 fold |
| B29 | 0.5 fold |
| B30 | 0.6 fold |
| B31 | 0.6 fold |
| B32 | 0.2 fold |
| B33 | 0.2 fold |
| B34 | 1.8 fold |
| B35 | 0.1 fold |
| B36 | 0.3 fold |
| B37 | 1.4 fold |
| B38 | 0.6 fold |
| B39 | 1.8 fold |
| B40 | 0.8 fold |
